Test results as given in US20080318845A1.

Biological target: rat VPAC1 receptor (rat) (UniProt P30083)
Test: cell-based or functional assay

rat VPAC1 receptor (rat), sequence (P30083 31-459): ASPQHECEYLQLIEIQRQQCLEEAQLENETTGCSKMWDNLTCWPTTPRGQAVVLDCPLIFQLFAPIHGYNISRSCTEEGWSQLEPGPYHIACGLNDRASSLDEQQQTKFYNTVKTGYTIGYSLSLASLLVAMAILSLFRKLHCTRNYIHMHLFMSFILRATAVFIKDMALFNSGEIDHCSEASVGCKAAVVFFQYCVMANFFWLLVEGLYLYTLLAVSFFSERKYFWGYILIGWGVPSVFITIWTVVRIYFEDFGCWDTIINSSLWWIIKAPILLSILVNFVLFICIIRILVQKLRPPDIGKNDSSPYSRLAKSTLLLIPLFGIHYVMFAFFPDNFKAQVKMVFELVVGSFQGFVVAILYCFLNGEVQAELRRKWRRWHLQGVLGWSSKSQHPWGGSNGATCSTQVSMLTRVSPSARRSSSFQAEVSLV

EC50, cAMP generation (DiscoveRx) | Substance
0.02 nM | vasoactive intestinal peptide (VIP)
0.07 nM | pituitary adenylate cyclase-activating polypeptide PACAP-27
